# Experimental data published in publication PMC9191634.
# Several values for one entry are separate records, joined by “and”; a condition that tells them apart may be missing. Equal entries are not always repeated.
# Legend:
# [1] = molecular target: human voltage-gated proton channel hHv1 (human) (UniProt Q96D96)
# hHv1-D185C (human) = hHv1-D185C (human) (UniProt Q96D96); assay: whole-cell patch clamp (block of H+ current)
# hHv1-E192C (human) = hHv1-E192C (human) (UniProt Q96D96); assay: whole-cell patch clamp (block of H+ current)
# hHv1-E196C (human) = hHv1-E196C (human) (UniProt Q96D96); assay: whole-cell patch clamp (block of H+ current)
# hHv1-G199C (human) = hHv1-G199C (human) (UniProt Q96D96); assay: whole-cell patch clamp (block of H+ current)
# hHv1-H193C (human) = hHv1-H193C (human) (UniProt Q96D96); assay: whole-cell patch clamp (block of H+ current)
# hHv1-L200C (human) = hHv1-L200C (human) (UniProt Q96D96); assay: whole-cell patch clamp (block of H+ current)
# hHv1-L203C (human) = hHv1-L203C (human) (UniProt Q96D96); assay: whole-cell patch clamp (block of H+ current)
# hHv1-R205N (human) = hHv1-R205N (human) (UniProt Q96D96); assay: whole-cell patch clamp (block of H+ current)
# hHv1-R211S (human) = hHv1-R211S (human) (UniProt Q96D96); assay: whole-cell patch clamp (block of H+ current)
# hHv1-V187C (human) = hHv1-V187C (human) (UniProt Q96D96); assay: whole-cell patch clamp (block of H+ current)
# [2] = molecular target: human voltage-gated proton channel hHv1 (human) (UniProt Q96D96); assay: whole-cell patch clamp (block of H+ current)
# [3] = molecular target: human voltage-gated proton channel hHv1 (human) (UniProt Q96D96); assay: whole-cell patch clamp (block of H+ current); as a1 but test pulses to +20 mV
# [4] = molecular target: human voltage-gated proton channel hHv1, Q96D96-1; assay: whole-cell patch clamp; conditions: +40 mV; HEK293T cells; parent: 0.031 ± 0.003 µM
# C6 peptide = assay: whole-cell patch clamp; conditions: +40 mV, HEK293T cells; for ratio to parent: parent: est. 1.0, read off a plot
substance,measurement,setting,value
C6 peptide (designed binder),"fraction of H+ current blocked by 250 nM C6, whole-cell patch clamp in HEK293T cells, -20 mV to +40 mV",[1],90%
same,fold enhancement of C6 inhibition against WT hHv1,hHv1-D185C (human),> 4 fold
same,Ki mutation/Ki WT,hHv1-E192C (human),> 43 fold
same,Ki mutation/Ki WT,hHv1-E196C (human),> 43 fold
same,Ki,hHv1-G199C (human),1.9 nM
same,Ki mutation/Ki WT,hHv1-H193C (human),> 43 fold
same,Ki mutation/Ki WT,hHv1-L200C (human),> 43 fold
same,fold enhancement of C6 inhibition against WT hHv1,hHv1-L203C (human),> 4 fold
same,Ki,hHv1-R205N (human),161 nM
same,koff,hHv1-R205N (human),0.19 s⁻¹
same,kon,hHv1-R205N (human),300000 M⁻¹ s⁻¹
same,Ki,hHv1-R211S (human),0.6 nM
same,koff,hHv1-R211S (human),0.0008 s⁻¹
same,kon,hHv1-R211S (human),500000 M⁻¹ s⁻¹
same,Ki mutation/Ki WT,hHv1-V187C (human),> 43 fold
same,kon,[2],300000 M⁻¹ s⁻¹ and 500000 M⁻¹ s⁻¹
same,Ki,[3],4.9 nM
same,koff,[3],0.0043 s⁻¹
same,kon,[3],400000 M⁻¹ s⁻¹
C6 peptide R36A,Ki,[4],15000 nM
human voltage-gated proton channel hHv1 (from UniProt Q96D96-1) A197C,ratio to parent,C6 peptide,7.6
human voltage-gated proton channel hHv1 (from UniProt Q96D96-1) E192A,Ki,C6 peptide; parent: 0.031 ± 0.003 µM,18000 nM
human voltage-gated proton channel hHv1 (from UniProt Q96D96-1) F190C,ratio to parent,C6 peptide,0.62
human voltage-gated proton channel hHv1 (from UniProt Q96D96-1) F195C,ratio to parent,C6 peptide,3.6
human voltage-gated proton channel hHv1 (from UniProt Q96D96-1) I183C,ratio to parent,C6 peptide,1.1
human voltage-gated proton channel hHv1 (from UniProt Q96D96-1) I186C,ratio to parent,C6 peptide,1.4
human voltage-gated proton channel hHv1 (from UniProt Q96D96-1) I202C,ratio to parent,C6 peptide,30
human voltage-gated proton channel hHv1 (from UniProt Q96D96-1) L184C,ratio to parent,C6 peptide,22
human voltage-gated proton channel hHv1 (from UniProt Q96D96-1) L188C,ratio to parent,C6 peptide,11
human voltage-gated proton channel hHv1 (from UniProt Q96D96-1) L189A,ratio to parent,C6 peptide,0.87
human voltage-gated proton channel hHv1 (from UniProt Q96D96-1) L198C,ratio to parent,C6 peptide,1.4
human voltage-gated proton channel hHv1 (from UniProt Q96D96-1) L201C,ratio to parent,C6 peptide,3.6
human voltage-gated proton channel hHv1 (from UniProt Q96D96-1) L203A,ratio to parent,C6 peptide,0.28
human voltage-gated proton channel hHv1 (from UniProt Q96D96-1) L204C,ratio to parent,C6 peptide,2.3
human voltage-gated proton channel hHv1 (from UniProt Q96D96-1) Q191C,ratio to parent,C6 peptide,8.7
human voltage-gated proton channel hHv1 (from UniProt Q96D96-1) Q194C,ratio to parent,C6 peptide,6
human voltage-gated proton channel hHv1 (from UniProt Q96D96-1) V187A,ratio to parent,C6 peptide,130
